The text below walks through data of article PMC5156300 (mBio, 2016).

In test [1] the target is NP-Renilla wild type (NP of influenza virus A/WSN/33) (Influenza A virus A/WSN/33, UniProt P15682). In words: LUMIER. The conditions noted are these: partners not purified.
Test [2] addresses NP of influenza virus A/PR/8/34 in infected A549 cells (Influenza A virus A/PR/8/34, UniProt P03466). The experiment in a line: flow cytometry on cells. As to conditions: one partner purified. On the technique in general: Flow cytometry measures light scatter and fluorescence of single cells or particles in a stream.
The target of test [3] is NP of influenza virus A/WSN/33 in infected A549 cells (Influenza A virus A/WSN/33, UniProt P15682). In words: flow cytometry on cells. The conditions noted are these: one partner purified.
Sequence of NP of influenza virus A/WSN/33 in infected A549 cells (P15682 whole entry): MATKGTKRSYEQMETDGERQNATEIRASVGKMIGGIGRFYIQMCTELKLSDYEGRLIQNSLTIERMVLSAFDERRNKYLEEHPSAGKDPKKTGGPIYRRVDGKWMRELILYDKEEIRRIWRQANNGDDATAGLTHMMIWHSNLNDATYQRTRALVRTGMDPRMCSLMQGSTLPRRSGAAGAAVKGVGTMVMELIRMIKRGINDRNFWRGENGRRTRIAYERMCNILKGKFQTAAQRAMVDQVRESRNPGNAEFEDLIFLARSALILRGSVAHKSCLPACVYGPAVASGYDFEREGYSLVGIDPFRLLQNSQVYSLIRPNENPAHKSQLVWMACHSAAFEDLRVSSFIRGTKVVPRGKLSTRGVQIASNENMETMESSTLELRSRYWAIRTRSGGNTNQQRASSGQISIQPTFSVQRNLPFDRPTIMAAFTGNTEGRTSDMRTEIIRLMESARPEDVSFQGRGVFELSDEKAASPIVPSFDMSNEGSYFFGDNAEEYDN

Sequence of NP of influenza virus A/PR/8/34 in infected A549 cells (P03466 whole entry): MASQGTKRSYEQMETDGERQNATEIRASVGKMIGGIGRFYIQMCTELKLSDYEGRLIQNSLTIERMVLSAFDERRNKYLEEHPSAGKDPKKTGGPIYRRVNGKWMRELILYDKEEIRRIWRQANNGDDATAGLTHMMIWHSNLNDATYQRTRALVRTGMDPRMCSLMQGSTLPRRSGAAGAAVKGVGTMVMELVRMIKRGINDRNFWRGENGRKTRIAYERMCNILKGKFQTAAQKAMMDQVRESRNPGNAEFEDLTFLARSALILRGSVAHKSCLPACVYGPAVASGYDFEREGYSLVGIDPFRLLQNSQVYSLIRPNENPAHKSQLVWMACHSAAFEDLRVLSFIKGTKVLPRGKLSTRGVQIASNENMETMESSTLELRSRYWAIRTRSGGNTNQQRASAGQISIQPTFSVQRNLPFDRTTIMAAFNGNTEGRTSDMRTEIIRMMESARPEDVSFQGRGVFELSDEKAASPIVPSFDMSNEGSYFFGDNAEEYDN
Sequence of NP-Renilla wild type (NP of influenza virus A/WSN/33) (P15682 whole entry): as the sequence (P15682 whole entry) above

B1: αNP-VHH1-HA (VHH)
VHH: QVQLQESGGGLVQAGGSLRLTCALSERTSTSYAQGWFRQPPGKEREFVASLRTHDGNTHYTDSVKGRFTISRDNAENTLYLQMNSLKTEDTAVYYCAASLGYSGAYASGYDYWGQGTQVTVSS
notes: also called anti-NP-VHH1-HA; HA-tagged anti-NP-VHH1; source: 293T, transfected (pCAGGS), in lysate
Regarding B1, the binding result in test [1] is “binds”.

B2: αNP-VHH1-Alexa Fluor 647 (VHH)
VHH: QVQLQESGGGLVQAGGSLRLTCALSERTSTSYAQGWFRQPPGKEREFVASLRTHDGNTHYTDSVKGRFTISRDNAENTLYLQMNSLKTEDTAVYYCAASLGYSGAYASGYDYWGQGTQVTVSS
Consider B2, for which the binding result in test [2] and in test [3] was “binds” each time.
